The results in this text go back to the RNAGym collection of RNA variant scans (doi:10.7554/elife.80360).

The chains are these.
B1: HDV Ribozyme (parent)
chain: GGCCGGCAUGGUCCCAGCCUCCUCGCUGGCGCCGGCUGGGCAACAUUCCGAGGGGACCGUCCCCUCGGUAAUGGCGAAUGGGACCCA

Variants of B1 are the subject of this data set. Description: self-cleavage, relative activity (ratio to wild type); higher = more cleavage; co-transcriptional.
As to GGCCGGCAUGGUCCCAGCCUCCUCGCUGGCGCCGGCUGGGCAACAUUCCGAGGGGAACGUCCCCUCGGUAAUGGCGAAUGAGACCCA [C57A G81A], the self-cleavage was 0.339.
In the case of GGCCGGCAUGGUCCCAGCCUCCUCGCUGGCGCCGGCUGGGCAACAUUCCGAGGGGAACGUCCCCUCGGUAAUGGCGAAUGCGACCCA [C57A G81C], the self-cleavage was 0.181.
For the variant GGCCGGCAUGGUCCCAGCCUCCUCGCUGGCGCCGGCUGGGCAACAUUCCGAGGGGAACGUCCCCUCGGUAAUGGCGAAUGUGACCCA [C57A G81U], the self-cleavage stood at 0.397.
For the variant GGCCGGCAUGGUCCCAGCCUCCUCGCUGGCGCCGGCUGGGCAACAUUCCGAGGGGAGAGUCCCCUCGGUAAUGGCGAAUGGGACCCA [C57G C58A], the self-cleavage worked out at 1.26.
With GGCCGGCAUGGUCCCAGCCUCCUCGCUGGCGCCGGCUGGGCAACAUUCCGAGGGGAGGGUCCCCUCGGUAAUGGCGAAUGGGACCCA [C57G C58G] the figure was 0.943.
As for GGCCGGCAUGGUCCCAGCCUCCUCGCUGGCGCCGGCUGGGCAACAUUCCGAGGGGAGCGUCCCCUCGGUAAUGGCGGAUGGGACCCA [C57G A77G], the self-cleavage is 1.05.
For the variant GGCCGGCAUGGUCCCAGCCUCCUCGCUGGCGCCGGCUGGGCAACAUUCCGAGGGGAGCGUCCCCUCGGUAAUGGCGUAUGGGACCCA [C57G A77U], the self-cleavage stood at 0.923.
Regarding GGCCGGCAUGGUCCCAGCCUCCUCGCUGGCGCCGGCUGGGCAACAUUCCGAGGGGAGCGUCCCCUCGGUAAUGGCGAAUGGGACCCG [C57G A87G], the self-cleavage came out at 0.86.
On to GGCCGGCAUGGUCCCAGCCUCCUCGCUGGCGCCGGCUGGGCAACAUUCCGAGGGGAGCGUCCCCUCGGUAAUGGCGAAUGGGACCCC [C57G A87C], for which the self-cleavage was found to be 0.98.
As to GGCCGGCAUGGUCCCAGCCUCCUCGCUGGCGCCGGCUGGGCAACAUUCCGAGGGGAACGUCCCCUCGGUAAUUGCGAAUGGGACCCA [C57A G73U], the self-cleavage was determined as 0.322.
In the case of GGCCGGCAUGGUCCCAGCCUCCUCGCUGGCGCCGGCUGGGCAACAUUCCGAGGGGAACCUCCCCUCGGUAAUGGCGAAUGGGACCCA [C57A G59C], the self-cleavage worked out at 0.923.
With GGCCGGCAUGGUCCCAGCCUCCUCGCUGGCGCCGGCUGGGCAACAUUCCGAGGGGAACUUCCCCUCGGUAAUGGCGAAUGGGACCCA [C57A G59U], the self-cleavage is 1.11.
GGCCGGCAUGGUCCCAGCCUCCUCGCUGGCGCCGGCUGGGCAACAUUCCGAGGGGAACGGCCCCUCGGUAAUGGCGAAUGGGACCCA [C57A U60G]: the self-cleavage turned out to be 0.831.
As for GGCCGGCAUGGUCCCAGCCUCCUCGCUGGCGCCGGCUGGGCAACAUUCCGAGGGGAACGUCCCCUCGGUAAUGGCGAAUCGGACCCA [C57A G80C], the self-cleavage was determined as 0.166.
On to GGCCGGCAUGGUCCCAGCCUCCUCGCUGGCGCCGGCUGGGCAACAUUCCGAGGGGAGCGUCCCCUCGGUAUUGGCGAAUGGGACCCA [C57G A71U], for which the self-cleavage came to 0.91.
With GGCCGGCAUGGUCCCAGCCUCCUCGCUGGCGCCGGCUGGGCAACAUUCCGAGGGGAGCGUCCCCUCGGUAGUGGCGAAUGGGACCCA [C57G A71G] the figure was 1.08; with GGCCGGCAUGGUCCCAGCCUCCUCGCUGGCGCCGGCUGGGCAACAUUCCGAGGGGAACGUCCCCUCGGUAAUGGCGAAUGGAACCCA [C57A G82A], 0.554; with GGCCGGCAUGGUCCCAGCCUCCUCGCUGGCGCCGGCUGGGCAACAUUCCGAGGGGAACGUCCCCUCGGUAAUGGCGAAUGGCACCCA [C57A G82C], 0.298.
On to GGCCGGCAUGGUCCCAGCCUCCUCGCUGGCGCCGGCUGGGCAACAUUCCGAGGGGAGCGUACCCUCGGUAAUGGCGAAUGGGACCCA [C57G C61A], for which the self-cleavage is 1.03.
Consider GGCCGGCAUGGUCCCAGCCUCCUCGCUGGCGCCGGCUGGGCAACAUUCCGAGGGGAGCGUCCCCUCGGUAAUGGCGAAUGGGUCCCA [C57G A83U], for which the self-cleavage was 0.587.
Take GGCCGGCAUGGUCCCAGCCUCCUCGCUGGCGCCGGCUGGGCAACAUUCCGAGGGGAGCGUCCCCUCGGUAAUGGCGAAUGGGCCCCA [C57G A83C]: the self-cleavage was determined as 0.554.
Then GGCCGGCAUGGUCCCAGCCUCCUCGCUGGCGCCGGCUGGGCAACAUUCCGAGGGGAACGUCCCCUCGGUAAGGGCGAAUGGGACCCA [C57A U72G], with 0.635; and GGCCGGCAUGGUCCCAGCCUCCUCGCUGGCGCCGGCUGGGCAACAUUCCGAGGGGAACGUCCCCUCGGUAAUGGCGAACGGGACCCA [C57A U79C], with 0.429.
Regarding GGCCGGCAUGGUCCCAGCCUCCUCGCUGGCGCCGGCUGGGCAACAUUCCGAGGGGAACGUCCCCUCCGUAAUGGCGAAUGGGACCCA [C57A G67C], the self-cleavage worked out at 1.05.
In the case of GGCCGGCAUGGUCCCAGCCUCCUCGCUGGCGCCGGCUGGGCAACAUUCCGAGGGGAACGUCCCCUCGAUAAUGGCGAAUGGGACCCA [C57A G68A], the self-cleavage amounted to 0.819.
On to GGCCGGCAUGGUCCCAGCCUCCUCGCUGGCGCCGGCUGGGCAACAUUCCGAGGGGAACGUCCCCUCGUUAAUGGCGAAUGGGACCCA [C57A G68U], for which the self-cleavage was found to be 1.14.
Take GGCCGGCAUGGUCCCAGCCUCCUCGCUGGCGCCGGCUGGGCAACAUUCCGAGGGGAACGUCCCCUCGGUAAUGACGAAUGGGACCCA [C57A G74A]: the self-cleavage was 0.597.
Then GGCCGGCAUGGUCCCAGCCUCCUCGCUGGCGCCGGCUGGGCAACAUUCCGAGGGGAGCGUCCCCUCGGUAAUGGCGAUUGGGACCCA [C57G A78U], with 0.441; and GGCCGGCAUGGUCCCAGCCUCCUCGCUGGCGCCGGCUGGGCAACAUUCCGAGGGGAACGUCCCCGCGGUAAUGGCGAAUGGGACCCA [C57A U65G], with 1.04; and GGCCGGCAUGGUCCCAGCCUCCUCGCUGGCGCCGGCUGGGCAACAUUCCGAGGGGAACGUCCCCCCGGUAAUGGCGAAUGGGACCCA [C57A U65C], with 0.762.
Then GGCCGGCAUGGUCCCAGCCUCCUCGCUGGCGCCGGCUGGGCAACAUUCCGAGGGGAGCGUCCCCUCGGUCAUGGCGAAUGGGACCCA [C57G A70C], with 0.959; and GGCCGGCAUGGUCCCAGCCUCCUCGCUGGCGCCGGCUGGGCAACAUUCCGAGGGGAGCGUCCCCUCGGUUAUGGCGAAUGGGACCCA [C57G A70U], with 0.96.
